Variants at the floor of the assay were thinned out.
Experiments:
biotinyl-Met-oxazolone = test: self-aminoacylation, catalytic enhancement (BMO) (fold over background); higher = more active; k-Seq, kA / k0A0; sequences stand for … in GGGAAUGGAUCCACAUCUACGAAUUC…UUCACUGCAGACUUGACGAAGCUG
In short: (§1)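 Mutagenized RNA pools with a 21-nt variable region (0.43 μM) reacted with each biotinyl-aminoacyl-oxazolone at 2–1250 μM. Reactions ran in 50 μL HEPES/NaCl/KCl/MgCl2/CaCl2 buffer with 5% acetonitrile, pH 6.9–7.0, for 90 minutes at room temperature. Streptavidin-captured RNA was quantified by triplicate qPCR and Illumina sequencing, and per-sequence fraction reacted was fit to a pseudo-first-order model with 1000 bootstraps. Catalytic enhancement is median kA divided by the uncatalyzed rate, the low-activity peak of a bimodal Gaussian fit.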

biotinyl-Trp-oxazolone = test: self-aminoacylation, catalytic enhancement (BWO) (fold over background); higher = more active; k-Seq, kA / k0A0; sequences stand for … in GGGAAUGGAUCCACAUCUACGAAUUC…UUCACUGCAGACUUGACGAAGCUG
In short: as §1

biotinyl-Val-oxazolone = test: self-aminoacylation, catalytic enhancement (BVO) (fold over background); higher = more active; k-Seq, kA / k0A0; sequences stand for … in GGGAAUGGAUCCACAUCUACGAAUUC…UUCACUGCAGACUUGACGAAGCUG
In short: as §1

biotinyl-Leu-oxazolone = test: self-aminoacylation, catalytic enhancement (BLO) (fold over background); higher = more active; k-Seq, kA / k0A0; sequences stand for … in GGGAAUGGAUCCACAUCUACGAAUUC…UUCACUGCAGACUUGACGAAGCUG
In short: as §1

biotinyl-Phe-oxazolone = test: self-aminoacylation, catalytic enhancement (BFO) (fold over background); higher = more active; k-Seq, kA / k0A0; sequences stand for … in GGGAAUGGAUCCACAUCUACGAAUUC…UUCACUGCAGACUUGACGAAGCUG
In short: as §1

biotinyl-Ile-oxazolone = test: self-aminoacylation, catalytic enhancement (BIO) (fold over background); higher = more active; k-Seq, kA / k0A0; sequences stand for … in GGGAAUGGAUCCACAUCUACGAAUUC…UUCACUGCAGACUUGACGAAGCUG
In short: as §1

Sequence	self-aminoacylation (biotinyl-Met-oxazolone)	self-aminoacylation (biotinyl-Trp-oxazolone)	self-aminoacylation (biotinyl-Val-oxazolone)	self-aminoacylation (biotinyl-Leu-oxazolone)	self-aminoacylation (biotinyl-Phe-oxazolone)	self-aminoacylation (biotinyl-Ile-oxazolone)
AUUACCCUCGUCAACGAGUGA [Fam2.1 aminoacylation ribozyme variant]	3.05	2.82	2.06	3	5.53	1.89
AUUACCCUCGUCAUCGAGUAA [Fam2.1 aminoacylation ribozyme variant]	0.866	0.978	1.02	0.985	0.716	0.904
AUUACCCUCGUCAUCGCGUGA [Fam2.1 aminoacylation ribozyme variant]	6.01	6.81	4.02	6.51	51.9	3.63
AUUACCCUCGUGAUCGAGUGA [Fam2.1 aminoacylation ribozyme variant]	10.4	10.8	4.09	11.6	70.3	4.47
AUUACCCUGAACAUCGAGUGA [Fam2.1 aminoacylation ribozyme variant]	6.65	8.05	3.35	6.97	24.2	3.4
AUUACCCUGAUCAUCCAGUGA [Fam2.1 aminoacylation ribozyme variant]	5.79	7.09	3.49	5.22	16.9	2.91
AUUACCCUGAUCAUCGAGUGG [Fam2.1 aminoacylation ribozyme variant]	2.82	2.13	1.62	2.42	2.77	1.52
AUUACCCUGAUCAUUGAGUGA [Fam2.1 aminoacylation ribozyme variant]	12.9	15.6	5.87	12.2	68.4	5.87
AUUACCCUGAUGAUCGAGUGA [Fam2.1 aminoacylation ribozyme variant]	12.7	14.4	5.25	13	79.7	5.5
AUUACCCUGCUCAUCCAGUGA [Fam2.1 aminoacylation ribozyme variant]	5.54	7.43	3.34	6.26	34.2	3.06
AUUACCCUGCUCAUCGAGCGA [Fam2.1 aminoacylation ribozyme variant]	1.3	0.81	0.851	1.4	0.874	1.12
AUUACCCUGCUCAUCGAGUCA [Fam2.1 aminoacylation ribozyme variant]	0.64	0.425	0.819	0.646	0.452	0.779
AUUACCCUGCUCAUCGCGUGA [Fam2.1 aminoacylation ribozyme variant]	17.1	16.9	7.29	16.4	152	7.11
AUUACCCUGCUCAUCUAGUGA [Fam2.1 aminoacylation ribozyme variant]	6.35	8.05	3.3	6.75	29.8	2.97
AUUACCCUGCUGAUCGAGUGA [Fam2.1 aminoacylation ribozyme variant]	2.68	2.77	1.67	2.87	10.4	1.93
AUUACCCUGGACAUCCAGUGA [Fam2.1 aminoacylation ribozyme variant]	3.32	4.13	2.51	3.82	15.9	2.61
AUUACCCUGGACAUCGACUGA [Fam2.1 aminoacylation ribozyme variant]	0.616	0.238	0.626	0.529	0.713	0.543
AUUACCCUGGACAUCGAGGGA [Fam2.1 aminoacylation ribozyme variant]	2.18	2.17	1.19	1.46	1.26	1.53
AUUACCCUGGACAUCGAUUGA [Fam2.1 aminoacylation ribozyme variant]	0.785	0.675	0.863	0.831	0.447	0.804
AUUACCCUGGACAUCUAGUGA [Fam2.1 aminoacylation ribozyme variant]	5.4	5.51	2.71	5.12	17	2.55
AUUACCCUGGCAAUCGAGUGA [Fam2.1 aminoacylation ribozyme variant]	4.83	5.92	3.02	5.38	28.2	2.78
AUUACCCUGGCCAGCGAGUGA [Fam2.1 aminoacylation ribozyme variant]	5	4.9	3.29	4.29	18	2.73
AUUACCCUGGCCAUCGAGAGA [Fam2.1 aminoacylation ribozyme variant]	1.02	0.803	1.01	0.919	0.439	0.69
AUUACCCUGGCCAUCGAGUCA [Fam2.1 aminoacylation ribozyme variant]	0.714	0.66	0.826	0.727	0.47	0.78
AUUACCCUGGCCAUCUAGUGA [Fam2.1 aminoacylation ribozyme variant]	4.68	4.43	2.79	5.69	28.6	2.93

— the supplement of paper PMC9233669
